Substitutions are numbered along the chain they refer to. One block for each binder: values may come before it.
Legend:
[1] = target: T1, human CD103 (integrin Alpha-E) / human integrin Beta-7 heterodimer on cells (human, UniProt P38570 19-1179; P26010 20-798); test: cell ELISA on CHO.K1-hCD103/beta7 cells, OD450-620, upper left panel
T1 construct: The same id is used for native CD103 on human CD103+CD8+ T cells (tumor digests, TGF-beta induced T cells); the assay field tells which cells; also called hCD103/hBeta7; CHO.K1-hCD103/hBeta7

[2] = target: T1, human CD103 (integrin Alpha-E) / human …; test: flow cytometry competition on CD103+CD8+ T cells; pre-incubation with unlabeled 06A; table n=2
Experimental: (§1) Percentage binding of fluorescently labeled mAbs was determined using flow cytometry. Maximum binding was set at 100%.
(§2) Percentage binding of fluorescently labeled mAbs was determined using flow cytometry. Maximum binding was set at 100%

[3] = target: T1, human CD103 (integrin Alpha-E) / human …; test: flow cytometry competition on CD103+CD8+ T cells; pre-incubation with unlabeled 05A; table n=2
Experimental: as §1, §2

CHO.K1-rhesusCD103/beta7 = target: T2, CHO.K1-rhesusCD103/beta7; test: cell ELISA on CHO.K1-rhesusCD103/beta7 cells, abs 450-610
T2 construct: also called CHO.K1-rhCD103/rhBeta7; CHO-K1.rhCD103/rhBeta7
T2 alpha chain (rhesus integrin Alpha-E, CD103): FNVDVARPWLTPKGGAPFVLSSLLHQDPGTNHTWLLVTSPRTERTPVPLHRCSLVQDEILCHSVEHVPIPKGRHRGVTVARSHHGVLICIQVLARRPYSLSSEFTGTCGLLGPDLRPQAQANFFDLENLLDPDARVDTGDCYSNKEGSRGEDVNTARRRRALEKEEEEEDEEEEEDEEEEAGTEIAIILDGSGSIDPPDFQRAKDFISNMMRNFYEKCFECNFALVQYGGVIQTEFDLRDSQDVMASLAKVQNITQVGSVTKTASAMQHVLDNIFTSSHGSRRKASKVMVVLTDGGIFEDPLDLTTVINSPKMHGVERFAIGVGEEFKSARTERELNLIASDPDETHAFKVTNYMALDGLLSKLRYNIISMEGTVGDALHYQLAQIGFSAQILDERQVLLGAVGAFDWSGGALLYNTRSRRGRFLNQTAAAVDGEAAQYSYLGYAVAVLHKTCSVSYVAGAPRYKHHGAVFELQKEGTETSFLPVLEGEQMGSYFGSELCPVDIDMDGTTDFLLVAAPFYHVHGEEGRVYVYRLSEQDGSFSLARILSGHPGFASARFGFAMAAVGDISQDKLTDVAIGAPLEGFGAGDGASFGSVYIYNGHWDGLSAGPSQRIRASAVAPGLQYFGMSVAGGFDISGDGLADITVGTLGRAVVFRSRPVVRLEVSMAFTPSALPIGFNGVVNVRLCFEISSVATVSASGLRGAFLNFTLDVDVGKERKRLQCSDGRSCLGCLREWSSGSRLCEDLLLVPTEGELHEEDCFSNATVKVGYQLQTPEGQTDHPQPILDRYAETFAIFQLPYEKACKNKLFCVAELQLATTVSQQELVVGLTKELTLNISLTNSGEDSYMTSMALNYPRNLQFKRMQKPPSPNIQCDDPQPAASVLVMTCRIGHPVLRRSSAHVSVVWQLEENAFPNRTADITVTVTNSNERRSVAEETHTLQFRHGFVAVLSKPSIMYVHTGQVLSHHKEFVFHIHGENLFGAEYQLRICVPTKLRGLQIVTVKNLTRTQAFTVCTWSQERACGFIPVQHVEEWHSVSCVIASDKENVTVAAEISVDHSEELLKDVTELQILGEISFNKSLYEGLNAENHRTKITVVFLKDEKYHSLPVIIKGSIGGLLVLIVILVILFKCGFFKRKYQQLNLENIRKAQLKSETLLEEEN
T2 beta chain (rhesus integrin Beta-7): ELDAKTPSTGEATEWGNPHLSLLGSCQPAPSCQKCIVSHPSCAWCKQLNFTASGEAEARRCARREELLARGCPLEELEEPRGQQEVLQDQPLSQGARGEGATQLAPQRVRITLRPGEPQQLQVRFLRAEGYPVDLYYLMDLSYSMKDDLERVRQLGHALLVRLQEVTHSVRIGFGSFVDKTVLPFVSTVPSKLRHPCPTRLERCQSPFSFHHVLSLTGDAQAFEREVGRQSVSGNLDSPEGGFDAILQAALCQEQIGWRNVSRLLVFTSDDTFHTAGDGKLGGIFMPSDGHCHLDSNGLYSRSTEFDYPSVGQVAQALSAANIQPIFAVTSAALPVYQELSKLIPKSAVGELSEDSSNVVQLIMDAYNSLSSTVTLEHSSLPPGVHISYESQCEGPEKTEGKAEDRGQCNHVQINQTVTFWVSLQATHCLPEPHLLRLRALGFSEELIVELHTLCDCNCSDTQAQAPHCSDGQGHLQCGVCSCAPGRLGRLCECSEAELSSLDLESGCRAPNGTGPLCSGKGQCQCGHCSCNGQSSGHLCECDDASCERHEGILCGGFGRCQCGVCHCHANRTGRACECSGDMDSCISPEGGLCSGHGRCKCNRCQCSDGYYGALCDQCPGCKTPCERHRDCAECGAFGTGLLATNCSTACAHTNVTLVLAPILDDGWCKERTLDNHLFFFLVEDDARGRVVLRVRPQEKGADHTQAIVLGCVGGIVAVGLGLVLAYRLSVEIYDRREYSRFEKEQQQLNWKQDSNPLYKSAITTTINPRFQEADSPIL

[4] = target: T1, human CD103 (integrin Alpha-E) / human …; test: flow cytometry competition on CD103+CD8+ T cells; pre-incubation with unlabeled 03A; table n=1
Experimental: as §1, §2

[5] = target: T1, human CD103 (integrin Alpha-E) / human …; test: flow cytometry competition on CD103+CD8+ T cells; pre-incubation with unlabeled IgG (f2); table n=1
Experimental: as §2

[6] = target: T1, human CD103 (integrin Alpha-E) / human …; test: cell ELISA on CHO.K1-humanCD103/beta7 cells, abs 450-610

T1 sequence (P38570 19-1179 limits assumed, chain 1 of 2): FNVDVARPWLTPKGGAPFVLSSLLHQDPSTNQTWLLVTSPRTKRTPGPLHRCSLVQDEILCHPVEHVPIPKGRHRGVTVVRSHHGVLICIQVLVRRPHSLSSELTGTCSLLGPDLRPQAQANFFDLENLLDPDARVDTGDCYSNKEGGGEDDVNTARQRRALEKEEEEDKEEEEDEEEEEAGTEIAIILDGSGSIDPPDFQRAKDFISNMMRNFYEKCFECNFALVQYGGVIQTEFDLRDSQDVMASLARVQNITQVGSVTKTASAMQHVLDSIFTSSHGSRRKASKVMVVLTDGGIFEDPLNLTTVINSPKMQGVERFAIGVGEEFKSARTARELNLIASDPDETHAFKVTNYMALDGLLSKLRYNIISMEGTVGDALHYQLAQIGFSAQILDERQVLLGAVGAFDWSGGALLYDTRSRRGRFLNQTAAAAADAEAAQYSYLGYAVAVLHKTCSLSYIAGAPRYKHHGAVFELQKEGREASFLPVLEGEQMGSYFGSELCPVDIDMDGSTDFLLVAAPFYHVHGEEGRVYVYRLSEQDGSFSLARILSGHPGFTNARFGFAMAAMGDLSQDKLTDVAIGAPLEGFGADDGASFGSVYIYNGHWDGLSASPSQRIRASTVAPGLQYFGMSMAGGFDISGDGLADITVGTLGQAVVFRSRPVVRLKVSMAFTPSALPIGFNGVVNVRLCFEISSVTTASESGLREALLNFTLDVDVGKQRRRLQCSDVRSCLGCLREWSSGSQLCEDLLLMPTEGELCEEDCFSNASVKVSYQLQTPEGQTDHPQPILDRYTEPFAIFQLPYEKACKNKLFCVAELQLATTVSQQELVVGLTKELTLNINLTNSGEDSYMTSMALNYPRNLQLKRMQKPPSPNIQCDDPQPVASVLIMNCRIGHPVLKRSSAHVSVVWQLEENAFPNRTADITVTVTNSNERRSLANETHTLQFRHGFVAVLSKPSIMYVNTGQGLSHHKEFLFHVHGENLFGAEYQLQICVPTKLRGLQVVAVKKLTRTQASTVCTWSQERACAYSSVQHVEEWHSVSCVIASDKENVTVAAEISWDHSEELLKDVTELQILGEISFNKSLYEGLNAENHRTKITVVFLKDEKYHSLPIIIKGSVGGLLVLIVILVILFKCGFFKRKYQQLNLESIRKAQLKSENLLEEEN
T1 sequence (P26010 20-798 limits assumed, chain 2 of 2): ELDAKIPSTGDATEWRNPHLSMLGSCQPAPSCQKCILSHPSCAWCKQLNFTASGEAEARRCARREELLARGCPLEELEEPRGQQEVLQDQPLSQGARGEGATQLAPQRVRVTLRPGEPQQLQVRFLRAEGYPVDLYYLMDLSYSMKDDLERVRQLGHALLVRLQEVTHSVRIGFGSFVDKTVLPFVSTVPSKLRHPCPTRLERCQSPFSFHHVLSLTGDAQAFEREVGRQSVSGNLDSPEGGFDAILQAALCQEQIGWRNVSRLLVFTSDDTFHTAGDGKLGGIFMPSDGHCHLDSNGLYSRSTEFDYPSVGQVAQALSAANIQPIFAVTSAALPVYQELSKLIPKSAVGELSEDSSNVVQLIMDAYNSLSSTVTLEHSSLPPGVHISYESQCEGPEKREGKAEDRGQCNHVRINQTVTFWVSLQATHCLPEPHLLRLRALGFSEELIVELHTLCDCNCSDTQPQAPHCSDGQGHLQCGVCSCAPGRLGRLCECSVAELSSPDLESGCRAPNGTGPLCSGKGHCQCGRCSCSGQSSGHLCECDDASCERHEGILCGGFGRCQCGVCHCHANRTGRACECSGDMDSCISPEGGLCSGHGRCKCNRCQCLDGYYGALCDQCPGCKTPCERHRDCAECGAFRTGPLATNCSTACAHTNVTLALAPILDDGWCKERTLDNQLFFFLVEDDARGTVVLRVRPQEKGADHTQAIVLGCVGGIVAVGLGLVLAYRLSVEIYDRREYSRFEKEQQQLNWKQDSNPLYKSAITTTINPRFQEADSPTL

EC50 (read off the curve) [1]: ~0.02 µg/mL | % binding of the fluorescently labeled mAb (IgG pre-incubation = 100) [2]: 18.9% | % binding of the fluorescently labeled mAb (IgG pre-incubation = 100) [3]: 102% | EC50 (read off the curve) (CHO.K1-rhesusCD103/beta7): ~50 ng/mL | % binding of the fluorescently labeled mAb (IgG pre-incubation = 100) [4]: 101% | % binding of the fluorescently labeled mAb (IgG pre-incubation = 100) [5]: 100% | EC50 (read off the curve) [6]: ~40 ng/mL
B1: hCD103.06A (antibody, mouse IgG1, V domains shown)
VH: QVQLQQPGSELVRPGASVKLSCKASGYTFTSYWMHWVKQRHGQGLEWIGNIYPGSGSTNYDEKFKSKGTLTVDTSSSTAYMHLSSLTSEDSAVYYCTRGVYDNPYYFDYWGQGTTLTVSS
VL: DIQMTQSSSNLSVSLGGRVTITCKASDHINNWLAWYQQKPGNAPRVLISGATSLETGVPSRFSGSGSGKDYTLSITSLQTEDVATYYCQQYWSIPLTFGAGTKLELK
notes: also called clone 06A; hCD103.06 mAb

% binding of the fluorescently labeled mAb (IgG pre-incubation = 100) [2]: 81.6% | % binding of the fluorescently labeled mAb (IgG pre-incubation = 100) [3]: 11.4% | EC50 (read off the curve) (CHO.K1-rhesusCD103/beta7): ~20 ng/mL | % binding of the fluorescently labeled mAb (IgG pre-incubation = 100) [4]: 94.4% | % binding of the fluorescently labeled mAb (IgG pre-incubation = 100) [5]: 100% | EC50 (read off the curve) [6]: ~10 ng/mL
B2: hCD103.07A (antibody, mouse IgG1, V domains shown)
VH: EVQLQESGPSLVKPSQTLSLTCSVTGDSITSGYWNWIRKFPGNKLEYMGYITYSGSTYYNPSLKSRISITRDTSKNQYYLQLNSVTTEDTATYYCARNYYGSSSMDYWGQGTSVTVSS
VL: DIVMTQSQKFMSTSVADRVSVTCKASQNVGSDVAWYQQKPGQSPKSLIYSASYRYSGVPDRFTGSGSGTDFTLTISNVQSEDLAEYFCQQYNSYPSTFGGGTKLEIK
notes: also called clone 07A

EC50 (read off the curve) [1]: ~0.02 µg/mL | % binding of the fluorescently labeled mAb (IgG pre-incubation = 100) [2]: 90.9% | % binding of the fluorescently labeled mAb (IgG pre-incubation = 100) [3]: 77.4% | EC50 (read off the curve) (CHO.K1-rhesusCD103/beta7): ~50 ng/mL | % binding of the fluorescently labeled mAb (IgG pre-incubation = 100) [4]: 96.7% | % binding of the fluorescently labeled mAb (IgG pre-incubation = 100) [5]: 100% | EC50 (read off the curve) [6]: ~20 ng/mL
B3: hCD103.01A (antibody, V domains shown)
VH: B2 VH with A96T, N98H, S103D, S104A
VL: DIVMTQSHKFMSTSVGDRVSITCKASQDVSIAVAWYQQRPGQSPKLLIYSASYRYTGVPDRFTGSGSGTDFTFTISSVQAEDLAVYYCQQHYSTPWTFGGGTKLEIK
notes: Also tested labelled with AF647, conjugated with Df and labelled with 89Zr; these are written under this molecule; also called clone 01A; hCD103.01 mAb

EC50 (read off the curve) [1]: ~0.02 µg/mL | % binding of the fluorescently labeled mAb (IgG pre-incubation = 100) [2]: 87.4% | % binding of the fluorescently labeled mAb (IgG pre-incubation = 100) [3]: 14.2% | % binding of the fluorescently labeled mAb (IgG pre-incubation = 100) [4]: 100% | % binding of the fluorescently labeled mAb (IgG pre-incubation = 100) [5]: 100%
B4: hCD103.05A (antibody, mouse IgG1, V domains shown)
VH: EVQLQQSGPELEKPGASAKISCKASGYSFTGYNMNWVKQSNGKSLEWIGNIDPYYGGTSYNQKFKGKATLTVDKSSSTAYMQLKSLTSEDSAVYYCARSFYGYDAGSPYNYAMDYWGQGTPVTVSP
VL: DIVMTQSHKFMSTSVGDRVSITCKASQDVGTFVAWYQQKPGQSPKLLIYWASTRHTGVPDRFTGSGSGTDFTLTISNVQSEDLADYFCHQYSSYPYTFGGGTQLEIK
notes: Also tested labelled with AF647, conjugated with Df and labelled with 89Zr; these are written under this molecule; also called clone 05A; hCD103.05 mAb
